In patent publication EP0669979B1 (GENENTECH, INC., dated 2005):

T1: C-C chemokine receptor 1 (C-C CKR-1) (human, UniProt P32246 1-355)
T1 construct: Transiently expressed from pRK5 in human embryonic kidney 293 cells; also called JOSH1; cloned C-C CKR-1
T1 sequence: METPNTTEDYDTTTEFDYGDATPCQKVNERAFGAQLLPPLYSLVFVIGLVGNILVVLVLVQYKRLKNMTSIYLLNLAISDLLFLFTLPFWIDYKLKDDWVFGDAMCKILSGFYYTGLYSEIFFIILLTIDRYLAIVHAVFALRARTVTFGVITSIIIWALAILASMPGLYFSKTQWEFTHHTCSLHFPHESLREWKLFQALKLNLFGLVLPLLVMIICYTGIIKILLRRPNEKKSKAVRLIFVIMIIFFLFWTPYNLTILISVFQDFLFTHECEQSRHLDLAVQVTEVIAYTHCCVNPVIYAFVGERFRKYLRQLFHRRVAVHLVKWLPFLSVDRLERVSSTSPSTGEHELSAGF


Legend:
[1] = molecular target: T1, C-C chemokine receptor 1 (C-C CKR-1); experiment: heterologous displacement of 125I-RANTES by unlabeled HuMIP-1α on 293 cells expressing C-C CKR-1, Scatchard analysis
[2] = molecular target: T1, C-C chemokine receptor 1 (C-C CKR-1); experiment: 125I-HuMIP-1α displaced by unlabeled HuMIP-1α on 293 cells expressing C-C CKR-1, 4 °C, Scatchard analysis
[3] = molecular target: T1, C-C chemokine receptor 1 (C-C CKR-1); experiment: heterologous displacement of 125I-HuMIP-1α on 293 cells expressing C-C CKR-1, Scatchard analysis

| Binder | Kd [1] [nM] | Kd [2] [nM] | Kd [3] [nM] |
| --- | --- | --- | --- |
| human MIP-1α (HuMIP-1α) (ligand, UniProt P10147 24-92, looked up, ends and bridges not checked; also: 125I-iodinated (chloroglycoluril) where used as tracer, also called HuMIP-1a) SLAADTPTACCFSYTSRQIPQNFIADYFETSSQCSKPGVIFLTKRSRQVCADPSEEWVQKYVSDLELSA | 7.6 | 5.1 | – |
| RANTES (Regulated on Activation, Normal T Expressed and Secreted) (ligand, UniProt P13501 24-91, looked up, ends and bridges not checked; also: 125I-labeled where used as tracer) SPYSSDTTPCCFAYIARPLPRAHIKEYFYTSGKCSNPAVVFVTRKNRQVCANPEKKWVREYINSLEMS | – | – | 468 |
| human MIP-1β (HuMIP-1β) (ligand, UniProt P13236 24-92, looked up, also called HuMIP-1b; MIP-lb) APMGSDPPTACCFSYTARKLPRNFVVDYYETSSLCSQPAVVFQTKRSKQVCADPSESWVQEYVYDLELN | – | – | 232 |
| murine MIP-1α (ligand, UniProt P10855 24-92, looked up) APYGADTPTACCFSYSRKIPRQFIVDYFETSSLCSQPGVIFLTKRNRQICADSKETWVQEYITDLELNA | – | – | 4.2 |
